Results as given in US9999679B2, “Aminofucoidan as a vector for fibrinolysis in thrombotic diseases” (INSTITUT NATIONAL DE LA SANTE ET DE LA RECHERCHE MEDICALE, priority 2013, dated 2018).

How the values were obtained:
[1] = system: thrombus performed in total blood, including Red Blood Cells; assay: Rotative thromboelastography (Rotem) lysis of thrombus in total blood; conditions: plasma PAI-1 present, ratio (t-PA/fuco) 1/5 or 1/10
Source text: Thromboelastography experiments have been carried out on a rotative thromboelastograph (Rotem®) as described in Boulaftali et al. (Boulaftali Y, Ho Tin Noe B, Pena A, Loyau S, Venisse L, Francois D, Richard B, Arocas V, Collet J P, Jandrot-Perrus M, Bouton M C. PLatelet Protease Nexin-1, a Serpin that Strongly Influences Fibrinolysis and Thrombolysis. Circulation. 2011; 123:1326-1334) and Mallet et al. (Mallet S V, Cox D J A. Thromboelastograph Analysis. British J of anaest. 1992; 69:307-313).
In a third series of in vitro experiments, the ability of aminofucoidans to accelerate the lysis of a thrombus performed in total blood, including Red Blood Cells, has been tested with rotative thromboelastography (Rotem®). In this experiment dilysine-fucoidan vectorized t-PA, in a ratio (t-PA/fuco) of 1/5 or 1/10 increased the thrombus lysis to 75% as compared to t-PA alone (55%). In this experiment, the plasma PAI-1 was present.

platelet-poor thrombus = assay: Ex vivo fibrinolysis of platelet-poor plasma clots (fluorescence release, clot weight loss); parameters: species or system Human
Procedure: (§1) Human platelet-rich and -poor plasma (PRP and PPP) were obtained from citrated blood after two centrifugation steps: at 120 g for 15 minutes followed by a second centrifugation step at 1200 g for 12 min. PRP was adjusted to 3×10^8 platelets per mL with poor platelet plasma (PPP) and supplemented with 75 μg/mL of fluorescein isothiocyanate-fibrinogen. Clot formation was induced by adding 10 mmol/L CaCl2 in glass tubes and incubated for 1 hour at 37° C. After retraction, clots were washed in Hank's buffer (Sigma), rapidly dryed on an absorbent paper and weighed. To assess fibrinolysis, PRP or PPP clots were incubated in Hanks' buffer containing the vectorized t-PA complexes (corresponding to 10 UI of t-PA, or 1.72 μg/mL) for 1 h at room temperature. Clots were transferred in a new eppendorf containing 500 μl of Hank's buffer supplemented with 1 μM of human plasminogen. The kinetic of fibrinolysis was evaluated by measuring the release of fluorescence from the clot to the supernatant with a spectrofluorimeter (485/520 nm). […]
(§2) Aminofucoidans were used in variables molecular ratio to t-PA (10 UI (corresponding to 1.72 μg/ml): the 1/10 ratio was used for mono-amine fucoidans and 1/5 for poly-amine fucoidans. Evaluation criteria were the initial lysis kinetic (appearance of fluorescence in supernatant) and the final thrombus weight loss at 17H/37° C. incubation. […]

[2] = Product No 173 from American diagnostic; cited from earlier work
mesenteric thrombi = assay: FeCl3-induced mesenteric vessel thrombosis, intravital imaging of thrombolysis; format: in vivo; conditions: mice, intravenous; 1 hour following FeCl3-induced injury (~45 min following treatment)
Source text: The group has recently published the ability of intravital microscopy to follow the lysis of thrombus in vivo. Thus, validation of t-PA vectorization by amino-fucoidans with intravital microscopy has been carried out according to the protocols described in Boulaftali et al. (Boulaftali et al., 2011, Platelet protease nexin-1, a serpin that strongly influences fibrinolysis and thrombolysis. Circulation; Boulaftali et al., 2012, The mouse dorsal skinfold chamber as a model for the study of thrombolysis by intravital microscopy. Thromb Haemost).
The thrombus is induced by local application of iron oxide on exposed vessels in mice. Fluorescent t-PA or a mixture of amino-fucoidans and t-PA are intravenously injected after iron oxide local application The fluorescence of t-PA and thrombus lysis were followed by intravital transillumination of the mesenteric tissue.
More precisely, after anesthesia (100 mg/kg ketamine, 10 mg/kg xylazine) and laparotomy, mouse mesenteric vessels were exposed for induction of thrombosis and video-microscopic intravital observation. […] Platelet deposition and thrombus growth were monitored for 15 minutes following injury and fluorescent t-PA±DiLysine-fucoidan was then injected intravenously to thrombolysis of the partially occlusive-formed thrombi. […]

platelet-rich thrombus = assay: Ex vivo fibrinolysis of platelet-rich plasma clots (fluorescence release, clot weight loss); parameters: species or system Human; conditions: 17H/37° C. incubation; p<0.01; FIG. 1
Procedure: as §1, §2

B1: t-PA: Single-chain recombinant tissue plasminogen activator, secreted by CHO cells transfected with human t-PA cDNA (American diagnostica) (protein, listed as Homo sapiens)
chain: MDAMKRGLCCVLLLCGAVFVSPSQEIHARFRRGARSYQVICRDEKTQMIYQQHQSWLRPVLRSNRVEYCWCNSGRAQCHSVPVKSCSEPRCFNGGTCQQALYFSDFVCQCPEGFAGKCCEIDTRATCYEDQGISYRGTWSTAESGAECTNWNSSALAQKPYSGRRPDAIRLGLGNHNYCRNPDRDSKPWCYVFKAGKYSSEFCSTPACSEGNSDCYFGNGSAYRGTHSLTESGASCLPWNSMILIGKVYTAQNPSAQALGLGKHNYCRNPDGDAKPWCHVLKNRRLTWEYCDVPSCSTCGLRQYSQPQFRIKGGLFADIASHPWQAAIFAKHRRSPGERFLCGGILISSCWILSAAHCFQERFPPHHLTVILGRTYRVVPGEEEQKFEVEKYIVHKEFDDDTYDNDIALLQLKSDSSRCAQESSVVRTVCLPPADLQLPDWTECELSGYGKHEALSPFYSERLKEAHVRLYPSSRCTSQHLLNRTVTDNMLCAGDTRSGGPQANLHDACQGDSGGPLVCLNDGRMTLVGIISWGLGCGQKDVPGVYTKVTNYLDWIRDNMRP
modifications: single-chain recombinant; /mol_type=“protein” /organism=“Homo sapiens”
thrombus lysis [1]: 55%
thrombi weight loss at 17H (platelet-poor thrombus): 97%
specific activity [2]: approximately 580 000 UI/mg
vessel occlusion / perfusion of injured vessels (mesenteric thrombi): occlusive thrombosis of injured vessels had occurred in all 3 mice
loss of platelet-rich thrombus weight (platelet-rich thrombus): 30%
